PMC2965030

Key:
[1] = molecular target: Glu-plasminogen (Homo sapiens) (UniProt P00747); details: cited from earlier work
[2] = molecular target: β2-glycoprotein I (human) (UniProt P02749); assay: optical biosensor
Chain of β2-glycoprotein I (human) (P02749 20-345): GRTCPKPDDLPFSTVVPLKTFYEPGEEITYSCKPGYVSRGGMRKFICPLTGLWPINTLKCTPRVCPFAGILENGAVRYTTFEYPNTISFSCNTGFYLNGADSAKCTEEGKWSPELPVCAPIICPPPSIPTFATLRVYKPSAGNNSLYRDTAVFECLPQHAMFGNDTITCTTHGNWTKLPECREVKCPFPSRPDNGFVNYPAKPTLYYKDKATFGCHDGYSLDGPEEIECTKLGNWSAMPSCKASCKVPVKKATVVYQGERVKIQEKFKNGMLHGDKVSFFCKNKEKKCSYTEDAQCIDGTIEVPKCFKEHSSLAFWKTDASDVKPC

Chain of β2-glycoprotein I (nicked) (P02749 20-345): as above
Chain of Glu-plasminogen (Homo sapiens) (P00747 20-810): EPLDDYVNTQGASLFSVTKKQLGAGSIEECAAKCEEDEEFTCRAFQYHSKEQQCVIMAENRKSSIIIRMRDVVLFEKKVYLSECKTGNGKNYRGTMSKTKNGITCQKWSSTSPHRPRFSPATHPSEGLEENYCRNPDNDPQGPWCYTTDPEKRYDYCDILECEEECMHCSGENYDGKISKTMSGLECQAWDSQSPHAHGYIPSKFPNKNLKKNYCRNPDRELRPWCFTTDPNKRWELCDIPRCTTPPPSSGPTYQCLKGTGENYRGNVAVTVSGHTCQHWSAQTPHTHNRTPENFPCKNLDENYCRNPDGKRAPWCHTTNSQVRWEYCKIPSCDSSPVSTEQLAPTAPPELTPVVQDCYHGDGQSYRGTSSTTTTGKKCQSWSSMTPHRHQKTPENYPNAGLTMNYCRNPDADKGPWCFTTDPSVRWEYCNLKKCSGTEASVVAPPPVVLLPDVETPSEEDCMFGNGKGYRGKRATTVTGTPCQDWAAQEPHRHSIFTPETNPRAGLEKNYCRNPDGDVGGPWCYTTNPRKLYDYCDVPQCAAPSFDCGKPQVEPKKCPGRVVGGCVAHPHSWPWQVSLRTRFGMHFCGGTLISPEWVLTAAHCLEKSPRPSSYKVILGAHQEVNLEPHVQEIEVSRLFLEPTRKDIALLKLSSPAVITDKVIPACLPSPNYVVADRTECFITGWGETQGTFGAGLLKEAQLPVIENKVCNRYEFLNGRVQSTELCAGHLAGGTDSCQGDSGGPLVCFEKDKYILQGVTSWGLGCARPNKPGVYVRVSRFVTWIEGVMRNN

Row | Substance | Kd [1] [nM] | koff [2] [s⁻¹] | kon [2] [M⁻¹ s⁻¹]
1 | β2-glycoprotein I (nicked) (from UniProt P02749) | 370 | – | –
2 | tissue-type plasminogen activator (enzyme) | – | 0.00619 | 113000
